Test results taken from publication doi:10.1101/2024.05.23.595592.

Biological target: TREM2 R77D, biotinylated (human) (UniProt Q9NZC2)
Experiment: BLI

Chain of TREM2 R77D, biotinylated (human) (Q9NZC2 19-230 R77D): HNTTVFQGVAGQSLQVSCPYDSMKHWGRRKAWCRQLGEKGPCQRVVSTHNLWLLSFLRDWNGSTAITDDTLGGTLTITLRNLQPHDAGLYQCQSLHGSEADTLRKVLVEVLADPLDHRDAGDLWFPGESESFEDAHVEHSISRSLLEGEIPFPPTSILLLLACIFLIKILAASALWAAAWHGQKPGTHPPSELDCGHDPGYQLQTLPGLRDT

Kd: 114 nM
B1: Human IL-34 (19-241) (ligand)
chain: LGNEPLEMWPLTQNEECTVTGFLRDKLQYRSRLQYMKHYFPINYKISVPYEGVFRIANVTRLQRAQVSERELRYLWVLVSLSATESVQDVLLEGHPSWKYLQEVETLLLNVQQGLTDVEVSPKVESVLSLLNAPGPNLKLVRPKALLDNCFRVMELLYCSCCKQSSVLNWQDCEVPSPQSCSPEPSLQYAATQLYPPPPWSPSSPPHSTGSVRPVRAQGEGLL
